Values quoted from earlier work, collected in paper PMC6277024.

Biological target: WRESAI hexapeptide

Kd: 10 nM
Substance: Tip-1 PDZ (from UniProt O14907)
